Sequences and labels used below:
B5: Arabidopsis LCB2a (natural protein)
chain: MITIPYLTAVSTYFSYGLLFAFGQLRDFFRRFIDWWFTSNLQGYAPICLGHEDFYIRRLYHRIQDCFERPISSAPDAWFDVVERYSNDNNKTLKRTTKTSRCLNLGSYNYLGFGSFDEYCTPRVIESLKKFSASTCSSRVDAGTTSVHAELEECVTRFVGKPAAVVFGMGYATNSAIIPVLIGKGGLIISDSLNHSSIVNGARGSGATIRVFQHNTPSHLERVLREQIAEGQPRTHRPWKKIIVVVEGIYSMEGEICHLPEVVAICKKYKAYVYLDEAHSIGAIGKTGKGICELLGVDTADVDVMMGTFTKSFGSCGGYIAGSKELIQYLKHQCPAHLYATSIPTPSAQQIISAIKVILGEDGSNRGAQKLARIRENSNFFRAELQKMGFEVLGDNDSPVMPIMLYNPAKIPAFSRECLRQKVAVVVVGFPATPLLLARARICISASHSREDLIRALKVISKVGDLSGIKYFPAEPKKIEQSKNDIKLD
modifications: pyridoxal 5'-phosphate covalently linked to the ε-amino group of Lys311 (internal aldimine)
notes: LCB2a, subunit of serine palmitoyltransferase, Arabidopsis; codon-optimized cDNA in pCAG without a tag; residues 1 to 36 and 41 to 475 are in the atomic model; The sentence on the PLP link prints 'LCB2b'; the construct is LCB2a; also called AtLCB2a; source: HEK293F, transiently cotransfected with the other subunits, purified as a complex (anti-Flag resin, Superose 6) in GDN

The target in series [1] is T1, Flag-tagged Arabidopsis SPTssa (Arabidopsis, UniProt A8MSB8 1-56).
T1 construct: SPTssa, small subunit of serine palmitoyltransferase, Arabidopsis; codon-optimized cDNA in pCAG; residues 1 to 48 are in the atomic model; The only tagged subunit; bait of every purification; also called Flag-SPTssa; Flag-AtSPTssa; source: HEK293F, transiently cotransfected with the other subunits, purified as a complex (anti-Flag resin, Superose 6) in GDN; not shown: Flag, N-terminal, kept
T1 sequence: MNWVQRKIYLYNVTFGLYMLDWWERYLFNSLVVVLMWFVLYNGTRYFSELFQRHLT
Description: cryo-EM structure; single-particle cryo-EM of the coexpressed, purified complexes (WT, ORM1-N17A, LCB2a-ΔN5) at ~18 mg/ml in 25 mM Hepes pH 7.5, 150 mM NaCl, 0.01% GDN; the LCB2a-ΔN5 sample preincubated with 0.5 mM PLP, 10 mM L-serine and 1 mM S-CoA. As to conditions: both partners purified.

Another series concerns the target T2, Arabidopsis LCB2a-ΔN5 (Arabidopsis, UniProt Q9LSZ9 1-489, LCB2a-ΔN5 (deletion of residues 2 to 5)).
T2 construct: LCB2a, Arabidopsis, with residues 2 to 5 deleted; also called LCB2a-ΔN5 variant
T2 sequence: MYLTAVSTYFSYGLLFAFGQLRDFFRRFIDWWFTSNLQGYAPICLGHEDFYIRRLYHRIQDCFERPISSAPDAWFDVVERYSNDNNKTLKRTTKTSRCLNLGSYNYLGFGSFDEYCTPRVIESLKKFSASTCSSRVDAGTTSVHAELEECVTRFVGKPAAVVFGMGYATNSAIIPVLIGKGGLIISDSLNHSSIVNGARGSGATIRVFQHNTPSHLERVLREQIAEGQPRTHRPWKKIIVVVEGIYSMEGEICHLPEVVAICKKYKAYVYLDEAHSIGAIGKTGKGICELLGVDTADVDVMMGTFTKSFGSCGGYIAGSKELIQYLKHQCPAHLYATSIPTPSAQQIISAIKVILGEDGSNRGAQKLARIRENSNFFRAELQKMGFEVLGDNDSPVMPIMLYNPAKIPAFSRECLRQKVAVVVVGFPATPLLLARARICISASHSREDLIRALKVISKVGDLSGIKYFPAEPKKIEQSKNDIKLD
The series is described as above. As to conditions: both partners purified.

The series “Arabidopsis LCB2a” deals with B5. Described as above. The following applies: both partners purified.
Series [2] deals with T3, Arabidopsis SPT complex (LCB1, LCB2a, SPTssa) (Arabidopsis, UniProt Q94IB8 1-482; Q9LSZ9 1-489; A8MSB8 1-56).
T3 sequence 1: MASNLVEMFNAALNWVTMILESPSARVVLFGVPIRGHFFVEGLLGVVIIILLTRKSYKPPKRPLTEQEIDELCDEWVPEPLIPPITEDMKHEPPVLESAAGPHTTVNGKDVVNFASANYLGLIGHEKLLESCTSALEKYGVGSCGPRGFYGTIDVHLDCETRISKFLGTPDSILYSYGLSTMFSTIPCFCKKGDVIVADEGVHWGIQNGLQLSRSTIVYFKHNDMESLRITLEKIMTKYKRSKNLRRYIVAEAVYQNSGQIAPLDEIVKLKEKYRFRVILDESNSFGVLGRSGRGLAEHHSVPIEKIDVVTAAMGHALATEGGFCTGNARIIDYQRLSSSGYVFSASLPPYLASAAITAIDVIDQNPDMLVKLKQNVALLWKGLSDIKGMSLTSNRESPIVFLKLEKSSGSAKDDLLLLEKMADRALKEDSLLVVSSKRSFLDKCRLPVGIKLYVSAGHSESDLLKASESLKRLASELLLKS
T3 sequence 2: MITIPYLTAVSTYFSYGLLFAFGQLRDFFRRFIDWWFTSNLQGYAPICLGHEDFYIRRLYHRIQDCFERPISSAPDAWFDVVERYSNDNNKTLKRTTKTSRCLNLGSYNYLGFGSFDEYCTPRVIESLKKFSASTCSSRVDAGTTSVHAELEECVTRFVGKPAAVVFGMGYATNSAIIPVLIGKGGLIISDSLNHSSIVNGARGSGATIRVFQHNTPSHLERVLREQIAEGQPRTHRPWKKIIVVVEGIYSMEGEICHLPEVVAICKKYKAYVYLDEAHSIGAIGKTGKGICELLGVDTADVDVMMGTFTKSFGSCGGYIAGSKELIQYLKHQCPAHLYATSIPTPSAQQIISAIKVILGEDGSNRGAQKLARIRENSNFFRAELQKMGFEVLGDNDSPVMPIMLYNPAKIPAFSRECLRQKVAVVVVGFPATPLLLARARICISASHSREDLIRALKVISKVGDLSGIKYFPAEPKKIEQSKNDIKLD
T3 sequence 3: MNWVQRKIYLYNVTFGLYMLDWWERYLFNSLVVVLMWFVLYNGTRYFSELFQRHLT
Description: cell-based or functional assay.

Series [3] concerns the molecule itself. Put plainly: cryo-EM structure; single-particle cryo-EM of the coexpressed, purified complexes (WT, ORM1-N17A, LCB2a-ΔN5) at ~18 mg/ml in 25 mM Hepes pH 7.5, 150 mM NaCl, 0.01% GDN; the LCB2a-ΔN5 sample preincubated with 0.5 mM PLP, 10 mM L-serine and 1 mM S-CoA.

Five molecules from article PMC10058238, “Mechanism of sphingolipid homeostasis revealed by structural analysis of Arabidopsis SPT-ORM1 complex” (Science Advances, 2023) can be followed below.

B1: Arabidopsis LCB1 (natural protein, UniProt Q94IB8 1-482, looked up)
chain: MASNLVEMFNAALNWVTMILESPSARVVLFGVPIRGHFFVEGLLGVVIIILLTRKSYKPPKRPLTEQEIDELCDEWVPEPLIPPITEDMKHEPPVLESAAGPHTTVNGKDVVNFASANYLGLIGHEKLLESCTSALEKYGVGSCGPRGFYGTIDVHLDCETRISKFLGTPDSILYSYGLSTMFSTIPCFCKKGDVIVADEGVHWGIQNGLQLSRSTIVYFKHNDMESLRITLEKIMTKYKRSKNLRRYIVAEAVYQNSGQIAPLDEIVKLKEKYRFRVILDESNSFGVLGRSGRGLAEHHSVPIEKIDVVTAAMGHALATEGGFCTGNARIIDYQRLSSSGYVFSASLPPYLASAAITAIDVIDQNPDMLVKLKQNVALLWKGLSDIKGMSLTSNRESPIVFLKLEKSSGSAKDDLLLLEKMADRALKEDSLLVVSSKRSFLDKCRLPVGIKLYVSAGHSESDLLKASESLKRLASELLLKS
notes: LCB1, subunit of serine palmitoyltransferase, Arabidopsis; codon-optimized cDNA in pCAG without a tag; residues 36 to 480 are in the atomic model; also called AtLCB1; source: HEK293F, transiently cotransfected with the other subunits, purified as a complex (anti-Flag resin, Superose 6) in GDN
Regarding B1, in series [1], the “stoichiometry N” value was determined as 1.

B2: Arabidopsis ORM1 (natural protein)
chain: MANLYVKAVPPPDMNRNTEWFMYPGVWTTYMLILFFGWLVVLSVSGCSPGMAWTVVNLAHFVVTYHSFHWMKGTPFADDQGIYNGLTWWEQMDNGQQLTRNRKFLTLVPVVLYLIASHTTDYRHPWLFLNTLAVMVLVVAKFPNMHKVRIFGINGDK
notes: ORM1, Arabidopsis; codon-optimized cDNA in pCAG without a tag; residues 1 to 156 are in the atomic model; also called AtORM1; WT ORM1
B2: in series [1], the “stoichiometry N” value was found to be 1. Also, the binding result with Arabidopsis LCB2a-ΔN5 and in the series with Arabidopsis LCB2a was “binds” throughout. In addition, the “specific SPT activity of the purified SPT-ORM1 complex at saturating conditions, relative to the SPT complex” value in series [2] was around 50%.

B3: Arabidopsis SPT-ORM1 complex (LCB1, LCB2a, SPTssa, ORM1) (complex)
chain 1: MASNLVEMFNAALNWVTMILESPSARVVLFGVPIRGHFFVEGLLGVVIIILLTRKSYKPPKRPLTEQEIDELCDEWVPEPLIPPITEDMKHEPPVLESAAGPHTTVNGKDVVNFASANYLGLIGHEKLLESCTSALEKYGVGSCGPRGFYGTIDVHLDCETRISKFLGTPDSILYSYGLSTMFSTIPCFCKKGDVIVADEGVHWGIQNGLQLSRSTIVYFKHNDMESLRITLEKIMTKYKRSKNLRRYIVAEAVYQNSGQIAPLDEIVKLKEKYRFRVILDESNSFGVLGRSGRGLAEHHSVPIEKIDVVTAAMGHALATEGGFCTGNARIIDYQRLSSSGYVFSASLPPYLASAAITAIDVIDQNPDMLVKLKQNVALLWKGLSDIKGMSLTSNRESPIVFLKLEKSSGSAKDDLLLLEKMADRALKEDSLLVVSSKRSFLDKCRLPVGIKLYVSAGHSESDLLKASESLKRLASELLLKS
chain 2: MITIPYLTAVSTYFSYGLLFAFGQLRDFFRRFIDWWFTSNLQGYAPICLGHEDFYIRRLYHRIQDCFERPISSAPDAWFDVVERYSNDNNKTLKRTTKTSRCLNLGSYNYLGFGSFDEYCTPRVIESLKKFSASTCSSRVDAGTTSVHAELEECVTRFVGKPAAVVFGMGYATNSAIIPVLIGKGGLIISDSLNHSSIVNGARGSGATIRVFQHNTPSHLERVLREQIAEGQPRTHRPWKKIIVVVEGIYSMEGEICHLPEVVAICKKYKAYVYLDEAHSIGAIGKTGKGICELLGVDTADVDVMMGTFTKSFGSCGGYIAGSKELIQYLKHQCPAHLYATSIPTPSAQQIISAIKVILGEDGSNRGAQKLARIRENSNFFRAELQKMGFEVLGDNDSPVMPIMLYNPAKIPAFSRECLRQKVAVVVVGFPATPLLLARARICISASHSREDLIRALKVISKVGDLSGIKYFPAEPKKIEQSKNDIKLD
chain 3: MNWVQRKIYLYNVTFGLYMLDWWERYLFNSLVVVLMWFVLYNGTRYFSELFQRHLT
chain 4: MANLYVKAVPPPDMNRNTEWFMYPGVWTTYMLILFFGWLVVLSVSGCSPGMAWTVVNLAHFVVTYHSFHWMKGTPFADDQGIYNGLTWWEQMDNGQQLTRNRKFLTLVPVVLYLIASHTTDYRHPWLFLNTLAVMVLVVAKFPNMHKVRIFGINGDK
modifications: pyridoxal 5'-phosphate covalently linked to the ε-amino group of Lys311 (internal aldimine)
notes: LCB1, Arabidopsis; as m1; LCB2a, Arabidopsis; as m2; SPTssa, Arabidopsis; as m3; ORM1, Arabidopsis; as m4; One protomer (1:1:1:1) of the dimer seen by cryo-EM; an endogenous ceramide copurifies between ORM1 and LCB2a; also called AtSPT-ORM1; WT SPT-ORM1 complex; source: HEK293F, transiently cotransfected (LCB1:LCB2a:ORM1:SPTssa = 3:3:3:1), purified (anti-Flag resin, Superose 6) in GDN; not shown: …
B3: the “stoichiometry N” value in series [3] is 2.

B4: Arabidopsis ORM1-N17A (natural protein)
chain: MANLYVKAVPPPDMNRATEWFMYPGVWTTYMLILFFGWLVVLSVSGCSPGMAWTVVNLAHFVVTYHSFHWMKGTPFADDQGIYNGLTWWEQMDNGQQLTRNRKFLTLVPVVLYLIASHTTDYRHPWLFLNTLAVMVLVVAKFPNMHKVRIFGINGDK
notes: ORM1, Arabidopsis, with N17A; residues 1 to 11 almost invisible in the map; also called ORM1-N17A variant
For the molecule B4, in the series with Arabidopsis LCB2a, the binding result is reported as “binds”. With B5, the “stoichiometry N” value in series [1] was determined as 1.

As usually defined, the stoichiometry N is a count of units in the complex or per binding partner.
